Measurements taken from US20230348603A1 (VERSEAU THERAPEUTICS, published 2023).
Changes are numbered by the printed parent chain. Names and notes keep the numbering of the source.

T1: Human VSIG4-L-His (human, UniProt Q9Y279 20-283)
T1 construct: long isoform ECD with His tag; also called hVSIG4-L
T1 sequence: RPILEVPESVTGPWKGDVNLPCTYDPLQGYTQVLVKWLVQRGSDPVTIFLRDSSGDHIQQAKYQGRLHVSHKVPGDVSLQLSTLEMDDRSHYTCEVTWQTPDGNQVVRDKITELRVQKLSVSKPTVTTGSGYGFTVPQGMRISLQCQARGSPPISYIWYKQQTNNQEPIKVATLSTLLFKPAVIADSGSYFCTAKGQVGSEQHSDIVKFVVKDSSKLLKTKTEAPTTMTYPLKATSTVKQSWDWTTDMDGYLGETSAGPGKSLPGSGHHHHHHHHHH

T2: Cynomolgus Monkey VSIG4-L-His (cynomolgus monkey)
T2 construct: ECD with His tag; also called cyVSIG4-L; cyno VSIG4-L-His
T2 chain: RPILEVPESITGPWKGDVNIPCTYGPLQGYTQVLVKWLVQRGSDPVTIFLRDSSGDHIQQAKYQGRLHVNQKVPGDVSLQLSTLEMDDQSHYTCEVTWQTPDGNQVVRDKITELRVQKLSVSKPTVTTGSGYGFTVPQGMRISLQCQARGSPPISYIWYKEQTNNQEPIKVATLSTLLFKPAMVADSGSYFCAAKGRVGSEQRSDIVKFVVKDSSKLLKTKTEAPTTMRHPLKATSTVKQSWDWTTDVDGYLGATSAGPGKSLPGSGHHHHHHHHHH

B1: h12A12.E humanized IgG4 (S228P) kappa (antibody, V domains shown)
VH: QVQMVQSGAEVKKPGASVKVSCKASGYTFTNYWMHWVRQAPGQGLEWMGYINPSTGYTDYNQKFQGRVTMTADKSTSTAYMELSSLRSEDTAVYYCIRGSDYYGRDYWGQGTTVTVSS
VL: DIQMTQSPSSLSASVGDRVTITCQASQDISNYLNWYQQKPGKAPKLLIYYTSRLHSGVPSRFSGSGSGTDYTFTISSLQPEDIATYYCRQGNTLPWTFGGGTKLEIKR
B2: h12A12.F humanized IgG4 (S228P) kappa (antibody, V domains shown)
VH: QVQMVQSGSELKKPGASVKVSCKASGYTFTNYWMHWVRQAPGQGLEWIGYINPSTGYTDYNQGFTGRFVLSADKSSSTAYLQISSLKAEDTAVYYCIRGSDYYGRDYWGQGTTVTVSS
VL: B1 VL
B3: h12A12.H humanized IgG4 (S228P) kappa (antibody, V domains shown)
VH: B2 VH with M4L, I48M, L70F, K74T, S76V
VL: B1 VL
B4: h12A12.B humanized IgG4 (S228P) kappa (antibody, V domains shown)
VH: B1 VH
VL: B1 VL with P44L, S56T
B5: h12A12.A humanized IgG4 (S228P) kappa (antibody, V domains shown)
VH: B1 VH
VL: B1 VL with P44L, Y87F
B6: h12A12.G humanized IgG4 (S228P) kappa (antibody, V domains shown)
VH: B1 VH with M4L, K74T, A79V
VL: B1 VL
B7: h12A12.C humanized IgG4 (S228P) kappa (antibody, V domains shown)
VH: B2 VH
VL: B1 VL with P44L, S56T
B8: h14C05.B humanized IgG4 (S228P) kappa (antibody, V domains shown)
VH: QVQLVQSGSELKKPGASVKVSCKASGYTFTNYGMNWVRQAPGQGLEWMGSINTYTGEATYADGFTGRFVFSLDTSVNTAYLQISSLKAEDTAVYYCARGDYYGRGTWFAYWGQGTLVTVSS
VL: ETQVTQSPSSLSASVGDRVTITCRASQDVSTAVAWYQQKPGKAPKLLIYSASYRYPGVPSRFSGSGSGTDFTLTISSLQPEDFATYYCQQDYSSPWTFGGGTKLEIKR
B9: h14C05.D humanized IgG4 (S228P) kappa (antibody, V domains shown)
VH: B8 VH
VL: ETVVTQSPATLSLSPGERATLSCRASQDVSTAVAWYQQKPGQAPRLLIYSASYRYPGIPARFSGSGSGTDFTLTISSLEPEDFAVYYCQQDYSSPWTFGGGTKLEIKR
B10: h14C05.C humanized IgG4 (S228P) kappa (antibody, V domains shown)
VH: QVQLVQSGAEVKKPGASVKVSCKASGYTFTNYGMNWVRQAPGQGLEWMGSINTYTGEATYADKFQGRVTMTLDTSTNTAYMELSSLRSEDTAVYYCARGDYYGRGTWFAYWGQGTLVTVSS
VL: B8 VL
B11: h14C05.G humanized IgG4 (S228P) kappa (antibody, V domains shown)
VH: B8 VH with D62Q, N77S
VL: B8 VL
B12: h14C05.F humanized IgG4 (S228P) kappa (antibody, V domains shown)
VH: B8 VH with G63D, T65K
VL: B8 VL
B13: h14C05.H humanized IgG4 (S228P) kappa (antibody, V domains shown)
VH: B10 VH with D62Q, N77S, A79V
VL: B8 VL
B14: h14C05.A humanized IgG4 (S228P) kappa (antibody, V domains shown)
VH: B8 VH with Q1E, Q3M, V76A, Y95F
VL: B8 VL
B15: h14C05.E humanized IgG4 (S228P) kappa (antibody, V domains shown)
VH: B10 VH
VL: B9 VL
B16: h14D12.A humanized IgG4 (S228P) kappa (antibody, V domains shown)
VH: QIQLVQSGSELKKPGASVKVSCKASGYTFTNYGMNWVRQAPGQGLEWMGLINTYTGEPTYADGFTGRFVFSLDTSASTAYLQISSLKAEDTAVYFCARERIYGYLHYFDYWGQGTTVTVSS
VL: DVVMTQSPDSLAVSLGERATINCKASQSVDYDGDSYMNWYQQKPGQPPKLLIYAASNLESGVPDRFSGSGSGTDFTLTISSLQAEDVAVYYCQQSNEDPRTFGGGTKLEIKR
B17: h14D12.B humanized IgG4 (S228P) kappa (antibody, V domains shown)
VH: QIQLVQSGAEVKKPGASVKVSCKASGYTFTNYGMNWVRQAPGQGLEWMGLINTYTGEPTYADKFQGRVTMTLDTSTSTAYMELSSLRSEDTAVYYCARERIYGYLHYFDYWGQGTTVTVSS
VL: B16 VL
B18: h14D12.C humanized IgG4 (S228P) kappa (antibody, V domains shown)
VH: B17 VH with M70F, T76A, Y95F
VL: B16 VL with L58R
B19: h13H11.C humanized IgG4 (S228P) kappa (antibody, V domains shown)
VH: QIQLVQSGSELKKPGASVKVSCKASGYTFENFGMNWVRQAPGQGLEWMGWINTYTGEATYADGFTGRFVFSLDTSVSTAYLQISSLKAEDTAVYYCARDGGFRHFDVWGQGTTVTVSS
VL: DTQVTQSPSSLSASVGDRVTITCQTSTDIDDDMNWYQQKPGKAPKLLISEGNTLRTGVPSRFSSSGSGTDFTFTISSLQPEDIATYYCLQSDNLPLTFGGGTKLEIKR
B20: h13H11.B humanized IgG4 (S228P) kappa (antibody, V domains shown)
VH: QIQLVQSGAEVKKPGASVKVSCKASGYTFENFGMNWVRQAPGQRLEWMGWINTYTGEATYADKFQGRVTFTLDTSASTAYMELSSLRSEDTAVYFCARDGGFRHFDVWGQGTTVTVSS
VL: B19 VL with D1E, T56P, S67Y
B21: h13H11.A humanized IgG4 (S228P) kappa (antibody, V domains shown)
VH: B19 VH
VL: B19 VL with D1E, T56P, S67Y
B22: h13H11.E humanized IgG4 (S228P) kappa (antibody, V domains shown)
VH: B20 VH with F70I, F95Y
VL: B19 VL with D30S, D31N, D32Y, T56P
B23: h13H11.F humanized IgG4 (S228P) kappa (antibody, V domains shown)
VH: B19 VH with G63D, T65K
VL: B19 VL with D1E, T56P, S67Y
B24: h13H11.D humanized IgG4 (S228P) kappa (antibody, V domains shown)
VH: B19 VH
VL: B19 VL with D30S, D31N, D32Y, T56P
B25: h13H11.H humanized IgG4 (S228P) kappa (antibody, V domains shown)
VH: B19 VH with G63D, T65K
VL: B19 VL with D30S, D31N, D32Y, T56P
B26: h13H11.G humanized IgG4 (S228P) kappa (antibody, V domains shown)
VH: B19 VH with G63D, T65K
VL: B19 VL
B27: h12A12.D humanized IgG4 (S228P) kappa (antibody, V domains shown)
VH: B2 VH with I48M, L70F, S76V
VL: EIVMTQSPATLSLSPGERATLSCRASQDISNYLNWYQQKPGQALRLLIYYTSRRHTGIPARFSGSGSGTDYTLTISSLEPEDFAVYYCRQGNTLPWTFGGGTKLEIKR

Assays:
Human VSIG4-L-His = molecular target: T1, Human VSIG4-L-His; experiment: BLI, IgG on AHC sensor, antigen 100 nM
Experimental: (§1) The binding affinity of chimeric antibodies was determined by biolayer interferometry (BLI), using a ForteBio Octet® Red384 system. […] Biosensors were rehydrated prior to the assay in kinetics buffer for 10 minutes and then equilibrated in kinetics buffer for 60 seconds. Antibody was then immobilized for 300 seconds followed by a 120 second baseline wash in fresh kinetics buffer, 300 second analyte association, and 300 second dissociation in the same buffer wells as the baseline wash step. All assay steps occurred at 30° C. with an acquisition rate of 5.0 Hz
(§2) The binding affinity of humanized antibodies and the parental chimeric antibodies was determined by biolayer interferometry (BLI), using a ForteBio Octet® Red384 system, as described above.

[1] = molecular target: T2, Cynomolgus Monkey VSIG4-L-His; experiment: BLI, IgG on AHC sensor, antigen 100 nM
Experimental: as §1, §2

Binder	KD relative to parental chimera (Human VSIG4-L-His) [fold]	KD relative to parental chimera [1] [fold]
B1	0.6	0.6
B2	0.4	0.4
B3	0.8	1
B4	0.6	0.7
B5	0.7	1
B6	0.7	1.1
B7	0.5	0.5
B8	0.7	0.7
B9	0.6	0.5
B10	0.6	0.6
B11	0.8	0.7
B12	0.6	0.7
B13	1	0.9
B14	0.8	0.7
B15	0.5	0.3
B16	1.1	1.2
B17	1	1.3
B18	1.4	1.5
B19	1.2	3.7
B20	2.5	0.9
B21	2.6	1
B22	1.4	1.1
B23	1.8	1.1
B24	0.8	1.7
B25	–	0.9
B26	1.2	0.9
B27	1.1	1.2
